Data set [1] deals with ZF01 (two-finger zinc finger protein targeting AATTAG, YFP fusion) (Artificial Sequence). Briefly: EMSA; 20 mM bis-Tris propane pH 7.0, 100 mM NaCl, 5 mM MgCl2, 20 mM ZnSO4 (so in the source), room temperature 1 h; complementary strand SEQ 14 appears printed 3'-5'. To be noted: tags: YFP fused via (Gly2Ser)2 linker; Ni-NTA purified from E. coli BL21(DE3), pET21b-YFP-ZF (1). On the procedure: (§1) In order to identify whether the sequence specific binding protein prepared in Example 2 specifically binds to the target nucleic acid, a gel mobility shift assay was performed.
Sequence of ZF01 (two-finger zinc finger protein targeting AATTAG, YFP fusion) (Artificial Sequence) (chain, as listed by the source): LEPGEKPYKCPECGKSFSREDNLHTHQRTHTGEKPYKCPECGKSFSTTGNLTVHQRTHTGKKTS
(§2) First, a 20-mer oligonucleotide including the nucleotide sequences AATTAG or AACTGA, which the sequence specific binding protein may specifically recognize, was synthesized (SEQ ID NO. 13 to SEQ ID NO. 16). Subsequently, each of the oligonucleotides of SEQ ID NOS. 13 and 14, SEQ ID NOS. 15 and 16 was annealed to prepare a target nucleic acid. The prepared target nucleic acid and the protein prepared in Example 2 was added to a buffer solution (including 10 ml of 20 mM bis-Tris propane (pH 7.0); 100 mM NaCl; 5 mM MgCl₂; 20 mM ZnSO₄; 10% glycerol; 0.1% Nonidet P-40; 5 mM DTT; and 0.10 mg/ml BSA), followed by reaction at room temperature for about 1 hour. The reactant was subjected to non-denaturing PAGE and as a result as shown in FIG. 6 and FIG. 7, it was identified that a combined product of a target nucleic acid 1 (a polynucleotide fragment including AATTAG) or 2 (a polynucleotide fragment including AACTGA) with ZF01 or ZF02 respectively recognizing the nucleic acid 1 or 2 was shorter in mobility distance on the gel than a negative control group (target nucleic acid).
(In general: A gel shift assay detects complexes by their altered migration in electrophoresis.)

The target of data set [2] is ZF02 (two-finger zinc finger protein targeting AACTGA, YFP fusion) (Artificial Sequence). Briefly: EMSA; 20 mM bis-Tris propane pH 7.0, 100 mM NaCl, 5 mM MgCl2, 20 mM ZnSO4 (so in the source), room temperature 1 h; complementary strand SEQ 16 appears printed 3'-5'. To be noted: tags: YFP fused via (Gly2Ser)2 linker; Ni-NTA purified from E. coli BL21(DE3), pET21b-YFP-ZF (2). The procedure:
as §1, §2

Sequence of ZF02 (two-finger zinc finger protein targeting AACTGA, YFP fusion) (Artificial Sequence) (chain, as listed by the source): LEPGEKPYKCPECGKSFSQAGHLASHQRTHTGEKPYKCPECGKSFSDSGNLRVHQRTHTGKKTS

B1: target nucleic acid 1 (AATTAG 20-mer duplex) (dsDNA)
DNA 1: TTTTTTTAATTAGTTTTTTT
DNA 2: AAAAAAACTAATTAAAAAAA
For B1, the binding result in data set [1] is on record as “binds”.

B2: target nucleic acid 2 (AACTGA 20-mer duplex) (dsDNA)
DNA 1: TTTTTTTAACTGATTTTTTT
DNA 2: AAAAAAATCAGTTAAAAAAA
B2: the binding result in data set [2] was “binds”.

(Values after US20130122577, “KIT INCLUDING SEQUENCE SPECIFIC BINDING PROTEIN AND METHOD AND DEVICE FOR DETERMINING NUCLEOTIDE SEQUENCE OF TARGET NUCLEIC ACID” (Samsung Electronics Co., Ltd., published 2013).)
